Reference: PMC6212785, “RGG-box in hnRNPA1 specifically recognizes the telomere G-quadruplex DNA and enhances the G-quadruplex unfolding ability of UP1 domain”

Legend:
UP1 [1] = target: T1, UP1 (UniProt P09651-2 1-196); assay: ITC; 100 mM KCl; ITC/CD: 20 mM Tris-Cl pH 8, 100 mM NaCl or KCl, 25 C; NMR: 10 mM sodium or potassium phosphate pH 6.5, 100 mM NaCl or KCl, 298 K; settings: protein: recombinant, tags: C-terminal 6xHis (pET28a), chain copies: 2
UP1+RGG [2] = target: T2, UP1+RGG (UniProt P09651-2 1-249); assay: as above; settings: protein: recombinant, tags: C-terminal 6xHis (pET28a), chain copies: 2
UP1 [3] = target: T1, UP1; assay: ITC; 100 mM NaCl; ITC/CD: 20 mM Tris-Cl pH 8, 100 mM NaCl or KCl, 25 C; NMR: 10 mM sodium or potassium phosphate pH 6.5, 100 mM NaCl or KCl, 298 K; settings: protein: recombinant, tags: C-terminal 6xHis (pET28a), chain copies: 2
UP1+RGG [4] = target: T2, UP1+RGG; assay: as above; settings: protein: recombinant, tags: C-terminal 6xHis (pET28a), chain copies: 2
RGG-box = RGG-box (UniProt P09651-2 197-249); assay: NMR 15N-1H HSQC titration; apparent Kd, global fit of 14 residues (individual 151-433 uM); ITC/CD: 20 mM Tris-Cl pH 8, 100 mM NaCl or KCl, 25 C; NMR: 10 mM sodium or potassium phosphate pH 6.5, 100 mM NaCl or KCl, 298 K; settings: protein: recombinant; tags: N-terminal GST removed by TEV; intramolecular G4 (monomeric)
Sequence of RGG-box (P09651 197-249): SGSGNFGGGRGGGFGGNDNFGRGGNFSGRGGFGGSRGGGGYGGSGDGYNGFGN

T2 sequence (P09651 1-249): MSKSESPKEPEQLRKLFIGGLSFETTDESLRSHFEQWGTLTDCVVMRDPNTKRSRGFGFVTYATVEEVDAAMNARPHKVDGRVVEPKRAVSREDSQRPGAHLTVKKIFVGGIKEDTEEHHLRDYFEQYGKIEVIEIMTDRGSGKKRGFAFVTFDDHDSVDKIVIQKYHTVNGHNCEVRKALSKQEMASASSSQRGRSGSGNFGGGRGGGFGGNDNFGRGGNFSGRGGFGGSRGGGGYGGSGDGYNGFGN
T1 sequence (P09651 1-196): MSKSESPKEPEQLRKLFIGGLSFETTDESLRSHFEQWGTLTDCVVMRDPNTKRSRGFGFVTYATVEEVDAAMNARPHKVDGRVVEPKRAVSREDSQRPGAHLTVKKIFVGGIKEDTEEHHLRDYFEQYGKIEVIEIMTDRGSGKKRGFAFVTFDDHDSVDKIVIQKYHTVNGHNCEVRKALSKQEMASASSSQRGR

Binder	Kd (UP1 [1]; single strand) [µM]	Kd (UP1+RGG [2]; single strand) [µM]	Kd (UP1 [3]; single strand) [µM]	Kd (UP1+RGG [4]; single strand) [µM]	Kd (UP1 [1]; intramolecular G4 (monomeric)) [µM]	Kd (UP1+RGG [2]; intramolecular G4 (monomeric)) [µM]	Kd (RGG-box) [µM]	Kd (UP1 [3]; intramolecular G4 (monomeric)) [µM]	Kd (UP1+RGG [4]; intramolecular G4 (monomeric)) [µM]
AGGATTAGGATTAGGATTAGGA (ssDNA) [Tel22ss]	1.23 ± 0.14	1.11 ± 0.15	1.2 ± 0.31	1.04 ± 0.15					
AGGGTTAGGGTTAGGGTTAGGG (structured_DNA) [Tel22 G-quadruplex]					5.62 ± 1.09	4.85 ± 0.6	349 ± 35	0.71 ± 0.14	0.6 ± 0.13
